Laboratory results published in the supplement of paper PMC12042874.
± gives the uncertainty stated by the source.

Experiment: amyloid nucleation score (Sup35N fusion, yeast selection) (log enrichment); library NNK3; higher = more nucleation; inactive = no reads after selection
How it was run: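 Peptides of 20 random codons fused to Sup35N were expressed in psi-negative yeast, induced 24 hours with 100 μM copper sulfate, then grown 7 days at 30°C on medium lacking adenine and uracil. Input and output plasmid inserts were Illumina-sequenced. Nucleation score is the DiMSum log enrichment of output over input reads, centred on the mode score of non-aggregating sequences, excluding sequences with under 100 input reads. Random libraries had three technical output replicates.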

Row | Substance | amyloid nucleation score
1 | AALAY | inactive
2 | AAPKGGYPVLCCSVRTGRN | 0.804 ± 0.13
3 | AASEPGSKRLEAAQWVPVAS | inactive
4 | AASIFGNSV | inactive
5 | AAVWRVVKRNLCHEIGERTA | inactive
6 | ACANYCGSFSTTTAEYDVPS | inactive
7 | ACFLVFGIYQEVMHDCIGRS | inactive
8 | ACGRVNVCYLTPMVRHSGRS | inactive
9 | ACLLVRYHTDDSNKRCSL | inactive
10 | ACNSPEVLQNLQRLRSCGRR | inactive
11 | ACYITTFLGADSVVEYQNDE | inactive
12 | ADIGPHRCVLGAMMRWCRQT | inactive
13 | ADLPCDVATNLVPLTRSSQM | inactive
14 | ADNIGRFVYCYCSVLQTTIS | 0.401 ± 0.21
15 | ADNTDMKMTEVGTHHNGNQN | inactive
16 | ADWRIKFYGCGDLGLFWES | inactive
17 | ADYLLSYACQSTLSHQKKRP | -0.854 ± 1.7
18 | AEGYFRSLSTIRGSLLDLSA | inactive
19 | AEHYVRYRRCSATWRICWMY | inactive
20 | AELSIADPTEMSGRVFACNV | inactive
21 | AEQCEPLWCFWKKRSL | 0.792 ± 0.18
22 | AETQCSSYDLCDTPSLFDVR | inactive
23 | AEVPSFECFTVPVFLRSIAV | inactive

Row | Substance | amyloid nucleation score
24 | AEYKNGTLRRRTRRVKSRRI | inactive
25 | AFCLQYVCYAKLMGNVNNTC | 1.75 ± 0.084
26 | AFFWCR | 0.314 ± 0.25
27 | AFKMVLIGFMSMVERSNVHG | inactive
28 | AFLFTLL | inactive
29 | AFTRQIIWRDGGERPPWMRV | inactive
30 | AFVNLYGKSARQSRQPMA | inactive
31 | AGEKPNSIFYSTHSSRSFSN | 0.965 ± 0.17
32 | AGGCFISARSIRNCAHMLSR | inactive
33 | AGKKLSRITTWSNTLLDPKS | inactive
34 | AGLSQNRSRIRSY | -0.2 ± 0.81
35 | AGNGPLSIYPMILMWMRVGR | inactive
36 | AGRNMSLCNLHLILLCTSKC | inactive
37 | AGWNMLVMTLCSTLFSQY | inactive
38 | AHDRIFWNGPYNRISYAAFR | inactive
39 | AHRCFFHLSRHVRKYAIRQR | inactive
40 | AIFFSFYRSFY | 1.86 ± 0.053
41 | AIFTFVPLSPTRTHGWDHCR | inactive
42 | AIIDYFMM | inactive
43 | AIISWQTLMWLYL | inactive
44 | AINDMRPVKSRGGVVELYML | inactive
45 | AISGIPESIVMLSYFRL | inactive
46 | AITHL | inactive

Row | Substance | amyloid nucleation score
47 | AIYLSFRGNA | 1.65 ± 0.071
48 | AKATMPIT | inactive
49 | AKSPL | -0.681 ± 0.96
50 | ALCMIYFW | 2.79 ± 0.076
51 | ALGKRSLLR | inactive
52 | ALLFLIERALCPSCK | inactive
53 | ALSMLTG | inactive
54 | ALVAKVVIGSRW | 0.569 ± 0.3
55 | ALVAPKAGAFMSLKVQLGMP | 1.67 ± 0.073
56 | ALWYENDCRWLDEVHRARTG | inactive
57 | ALYTCMNLSYPLHSEFVTPR | inactive
58 | AMNPLRLGLWSYNRLAWNMS | inactive
59 | AMVTVELSDNYFWNLHTVAS | inactive
60 | ANAVLKIFTSVMGSVNS | inactive
61 | ANLADKILFFGSPCRVMHPV | inactive
62 | ANMKINVVLLNDCGWGR | 1.5 ± 0.12
63 | ANPFFSLDK | inactive
64 | ANSNAFIQSDHIRYLLDFAM | 0.725 ± 0.18
65 | ANSTAAVKSLGRV | inactive
66 | ANVHNTENLRGLILCRRLLH | inactive
67 | APKCNSTMCSCALMTLFLIS | 2.14 ± 0.085
68 | APLEFLSSLDWIRPELALTF | inactive
69 | APPGFFIIVMSCWCYITRAL | inactive

Row | Substance | amyloid nucleation score
70 | APSYISRFVLLTDMPEAQTL | inactive
71 | APWYVNWGMYNCEWGRGS | inactive
72 | AQALRSVPEVWGEFTRSS | inactive
73 | AQEYRMQHRLGGL | inactive
74 | AQILSYVVSYSDPERHFSVM | inactive
75 | AQKFSIWLCTTICINTDFDF | 2.31 ± 0.06
76 | ARAYRDQGWPEKEIAQHK | inactive
77 | ARFMC | inactive
78 | ARLFKGYSVVLCLCVSHR | inactive
79 | ARLHVILCDGCHVRMCPEMG | inactive
80 | ARMVVVLKRFCGVCMMSLFL | inactive
81 | ARRDLFHWCRRQSCVYN | -0.275 ± 1.1
82 | ARYDRS | inactive
83 | ASAEEGWQNCEK | inactive
84 | ASCSGIC | -0.956 ± 2.4
85 | ASENLAEVLIVT | inactive
86 | ASQFRCDHCMPRLKGETMET | inactive
87 | ASRIDINRIWFVFWIQAIKS | inactive
88 | ASSRSHPV | inactive
89 | ASSSNGIVTFNNPR | inactive
90 | ASTSD | inactive
91 | ASVKGDRDDELSIKYVFGVG | inactive
92 | ATCRRFTLVQPSYLVPCEPY | inactive

Row | Substance | amyloid nucleation score
93 | ATDNVCVI | inactive
94 | ATSCILMMDLSRYYVGLYHR | 0.88 ± 0.094
95 | ATVTWHYAAWTWLGFRPSSL | inactive
96 | AVASSRYNLEYLSRSLCVMS | inactive
97 | AVIWGEAPRIFLTCGALRRE | inactive
98 | AVLGLMLPCFRARRAWIAPP | -0.22 ± 1.5
99 | AVLHMSCNWDKQFYNLLCFC | inactive
100 | AVQHIVEFILICQMFTYTHH | inactive
101 | AVSSSLNWLGFVRISGSRY | -0.432 ± 1
102 | AVSTTTSMVINRLRACKYAY | inactive
103 | AVTYNGYDHYYRDVARHCLR | inactive
104 | AVVIGDDEVVSDYCLLL | 0.377 ± 0.27
105 | AWFTEVYFKPSFRKR | inactive
106 | AWGYYPSLCGKEDVYSWGWG | inactive
107 | AWRAISDKTDGGSYDKSVIV | -0.364 ± 0.8
108 | AWRCLGSYCMRLRVSIKSQ | inactive
109 | AWRRSSEGYRFGNDYVTRAT | inactive
110 | AWSGFE | 0.01 ± 1.2
111 | AWVDWKWRNGRSLAS | inactive
112 | AWWYGLSMYIKKCILGSRFE | inactive
113 | AYLTI | inactive
114 | AYSDFRLTLSSYIVRANETC | inactive
115 | AYSFNSFRASGRHLWFTVCP | inactive

Row | Substance | amyloid nucleation score
116 | AYVRLKRCWDTFWLRI | inactive
117 | AYVSHINDMPAFGPKSNKPS | -0.19 ± 0.81
118 | AYYNMK | -0.111 ± 0.21
119 | CAKLLYGCDTSFREWMVGAE | inactive
120 | CANANVP | inactive
121 | CANNYGGMLRECQVSGYSCM | inactive
122 | CASSNRRESSYVLYSQWDIG | inactive
123 | CAVFRVSRISINTDAIFITC | 1.74 ± 0.054
124 | CCFVRWGFGC | 1.38 ± 0.091
125 | CCMVVTQYYARMMVWGNRPY | inactive
126 | CCTIIRAYVVRELAHINNSW | inactive
127 | CCVSVKYWYYV | 2.18 ± 0.058
128 | CCYLLHGGRILMIVVMSHHL | inactive
129 | CDAHSLSMLRVQIK | inactive
130 | CDHFQWYFLDRCLSVRCMIF | 0.054 ± 0.36
131 | CDRLIVHLFSHLDSGSSVVL | inactive
132 | CDRRFYRMNLCKNPFNYRFG | 0.55 ± 0.16
133 | CDVVSSDMVFDLS | inactive
134 | CDWRESVFRRAVTLPVALWM | inactive
135 | CEEPFETIS | 0.949 ± 0.25
136 | CEFRIFNWSFCSKRVGLRYV | inactive
137 | CEFWNKYSNLWIWGWL | 0.51 ± 0.31
138 | CEHCMYNRKPR | inactive

Row | Substance | amyloid nucleation score
139 | CELANFKCLLGSQMFSEPLG | inactive
140 | CESDEH | inactive
141 | CFCDVMQFWM | 2.4 ± 0.067
142 | CFFEVKRSHSIRVFRIGCGV | inactive
143 | CFFSRFILYPSLTLYMTMLR | inactive
144 | CFLMN | inactive
145 | CFMSLLNF | inactive
146 | CFNNRARP | inactive
147 | CFRCFGKGCHILAYGVYC | inactive
148 | CFRCS | inactive
149 | CGGIAFRNFLMNSGMPLEWK | inactive
150 | CGIRHTVLVVSRVGGYVWCL | -0.156 ± 1.1
151 | CGRNAAVSNARRCCSSKVCM | inactive
152 | CGWMEGLCQLYENKEMKHWH | -0.261 ± 0.88
153 | CHDVLIKWNMVCTSVVEGEH | inactive
154 | CHLCGMYSVCFLARSRLVLE | 0.067 ± 0.77
155 | CHNKKWVDFNVCFYNMLSFY | inactive
156 | CHPGASSTGSKLTSRNCL | inactive
157 | CHQKMSVA | inactive
158 | CIAYNMVSDYVSIGFNAGDM | inactive
159 | CIFCRFFKVLVGHSYL | inactive
160 | CIICFGPRNFESRRKQPDWR | inactive
